# US20260242478A1 (published 2026)
# Where no end group is shown, it is not given here.
# How the values were obtained:
# [1] = target: T1, Anti-PSMA Fab (SEQ ID NOs: 19, 20); assay: phage binding ELISA on captured PSMA Fab, wells pre-incubated with PSMA antigen as competitor
# T1 construct: In the phage ELISA the Fab was biotinylated and captured on neutravidin coated plates; also called 006 PSMA Fab
# Description: (§1) Clonal phage were harvested as crude supernatants and screened via standard ELISAs. […] Prior to the addition of clonal phage. wells were incubated with blocking buffer and PSMA antigen or blocking buffer alone. Without washing or aspirating, clonal phage supernatants were then added to the wells and incubated for a short time. Wells were then washed followed by detection of bound phage using a horse radish conjugated anti-M13 antibody.
# [2] = target: T1, Anti-PSMA Fab (SEQ ID NOs: 19, 20); assay: phage binding ELISA; biotinylated PSMA Fab captured on neutravidin plate, bound phage detected with anti-M13-HRP
# Description: as §1
# [3] = target: T2, Anti-PSMA Fab (SEQ ID NOs: 19, 20); assay: phage ELISA; biotinylated PSMA Fab on neutravidin plate, bound phage detected with anti-M13 HRP
# T2 construct: Biotinylated Fab captured on neutravidin coated plates in the phage ELISA; also called 006 PSMA Fab
# Description: as §1
# [4] = target: T2, Anti-PSMA Fab (SEQ ID NOs: 19, 20); assay: phage ELISA; PSMA Fab on plate pre-incubated with PSMA antigen as competitor, anti-M13 HRP
# Description: as §1
# [5] = target: T3, Anti-PSMA Fab (SEQ ID NOs: 19, 20); assay: phage binding ELISA; biotinylated anti-PSMA Fab on neutravidin plate, clonal phage supernatant, anti-M13 HRP detection
# T3 construct: Biotinylated and captured on neutravidin coated plates in the phage ELISA; also called 006 PSMA Fab
# Description: as §1
# [6] = target: T3, Anti-PSMA Fab (SEQ ID NOs: 19, 20); assay: phage binding ELISA; biotinylated anti-PSMA Fab on neutravidin plate, PSMA antigen as competitor, anti-M13 HRP detection
# Description: as §1
# [7] = target: T4, Anti-PSMA Fab (SEQ ID NOs: 19, 20); assay: phage ELISA; biotinylated PSMA Fab on neutravidin plate, clonal phage supernatant, anti-M13-HRP detection;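 further: wells were preincubated with blocking buffer containing PSMA antigen or with blocking buffer only, then phage supernatant was added without washing for a brief incubation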
# T4 construct: also called 006 PSMA Fab
# Description: as §1
# [8] = target: T4, Anti-PSMA Fab (SEQ ID NOs: 19, 20); assay: phage ELISA; biotinylated PSMA Fab on neutravidin plate pre-incubated with PSMA antigen as competitor, anti-M13-HRP detection
# Description: as §1
Binder,"Phage binding ELISA, Anti-PSMA Fab signal [3]","Phage binding ELISA, Anti-PSMA Fab signal in the presence of PSMA [4]","Anti-PSMA Fab (SEQ ID NOs: 19, 20) signal [5]",Anti-PSMA Fab signal in the presence of PSMA [6],further results
QGIMCIPEWMCSAI (Clonal phage of the Peptide-180 library) [Phage-2097],–,–,–,–,"Anti-PSMA Fab signal in the presence of PSMA [1]: 0.0664; Anti-PSMA Fab (SEQ ID NOs: 19, 20) signal [2]: 1.73"
DGLLCRPLWMCQFL (Clonal phage of the peptide-180 library) [Phage-2128],1.71,0.0771,–,–,–
MERWCIPEWMCATT [Phage-2102],–,–,1.73,0.0637,–
"ETRWCVPEWMCYGI (cysteine pairing not given here; also: fused to phage pIII, pIII sequence and linker not given here, Clonal phage of the Peptide-180 library) [Phage-2091]",–,–,–,–,"Anti-PSMA Fab signal in the presence of PSMA [1]: 0.0943; Anti-PSMA Fab (SEQ ID NOs: 19, 20) signal [2]: 1.74"
IPKLCKPSWMCLFY (Clonal phage of the Peptide-180 library) [Phage-2098],–,–,–,–,"Anti-PSMA Fab signal in the presence of PSMA [1]: 0.185; Anti-PSMA Fab (SEQ ID NOs: 19, 20) signal [2]: 1.73"
INMWCIPAWMCQNT (Clonal phage of the Peptide-180 library) [Phage-2100],–,–,–,–,"Anti-PSMA Fab signal in the presence of PSMA [1]: 0.128; Anti-PSMA Fab (SEQ ID NOs: 19, 20) signal [2]: 1.73"
WGKLCIPEWMCTTQ (Clonal phage of the Peptide-180 library) [Phage-2095],–,–,–,–,"Anti-PSMA Fab signal in the presence of PSMA [1]: 0.0687; Anti-PSMA Fab (SEQ ID NOs: 19, 20) signal [2]: 1.74"
VETWCTPRWMCEGF (Clonal phage of the Peptide-180 library) [Phage-2093],–,–,–,–,"Anti-PSMA Fab signal in the presence of PSMA [1]: 0.0881; Anti-PSMA Fab (SEQ ID NOs: 19, 20) signal [2]: 1.74"
YAKWCIPEWMCAVS (Clonal phage of the peptide-180 library) [Phage-2119],1.72,0.12,–,–,–
EIKWCRPGWMCKVR (Clonal phage of the peptide-180 library) [Phage-2123],1.71,0.0583,–,–,–
"LGNWCIPEWMCYGM (cysteine pairing not given here; also: fused to phage pIII (clonal phage display), Clonal phage of the Peptide-180 library) [Phage-2099]",–,–,–,–,"Anti-PSMA Fab signal in the presence of PSMA [1]: 0.078; Anti-PSMA Fab (SEQ ID NOs: 19, 20) signal [2]: 1.73"
SERWCIPEWMCSMP [Phage-2114],–,–,1.72,0.0625,–
SDKWCIPPWMCEVA (Clonal phage of the peptide-180 library) [Phage-2126],1.71,0.0724,–,–,–
LVKWCTPPWMCESQ (Clonal phage of the peptide-180 library) [Phage-2130],1.71,0.0701,–,–,–
EGKWCIPEWMCSAS [Phage-2134],–,–,–,–,"Phage binding ELISA, Anti-PSMA Fab (SEQ ID NOs: 19, 20) signal [7]: 1.7; Phage binding ELISA, Anti-PSMA Fab signal in the presence of PSMA [8]: 0.0777"
VDPLCRPAWMCFGM [Phage-2112],–,–,1.72,0.0801,–
MNTWCKPAWMCEGL [Phage-2113],–,–,1.72,0.127,–
FEKWCIPAWMCAAV (Clonal phage of the Peptide-180 library) [Phage-2092],–,–,–,–,"Anti-PSMA Fab signal in the presence of PSMA [1]: 0.112; Anti-PSMA Fab (SEQ ID NOs: 19, 20) signal [2]: 1.74"
LMKWCIPDWMCSHV (Clonal phage of the peptide-180 library) [Phage-2131],1.71,0.0763,–,–,–
AEKWCIPPWMCEWV (Clonal phage of the peptide-180 library) [Phage-2121],1.71,0.105,–,–,–
SENWCIPSWMCQGF [Phage-2103],–,–,1.73,0.0813,–
EIHLCKPPWMCDWL (Clonal phage of the peptide-180 library) [Phage-2120],1.72,0.109,–,–,–

Binder,"Phage binding ELISA, Anti-PSMA Fab signal [3]","Phage binding ELISA, Anti-PSMA Fab signal in the presence of PSMA [4]","Anti-PSMA Fab (SEQ ID NOs: 19, 20) signal [5]",Anti-PSMA Fab signal in the presence of PSMA [6],further results
EMIWCRPAWMCEGI (Clonal phage of the peptide-180 library) [Phage-2118],1.72,0.0702,–,–,–
PDHWCIPSWMCMSQ (Clonal phage of the Peptide-180 library) [Phage-2096],–,–,–,–,"Anti-PSMA Fab signal in the presence of PSMA [1]: 0.0974; Anti-PSMA Fab (SEQ ID NOs: 19, 20) signal [2]: 1.74"
VVHWCIPSWMCTEN (Clonal phage of the Peptide-180 library) [Phage-2094],–,–,–,–,"Anti-PSMA Fab signal in the presence of PSMA [1]: 0.0941; Anti-PSMA Fab (SEQ ID NOs: 19, 20) signal [2]: 1.74"
VHNWCIPSWMCEGL [Phage-2107],–,–,1.73,0.0717,–
WDKWCIPEWMCVTQ (Clonal phage of the peptide-180 library) [Phage-2127],1.71,0.1,–,–,–
EAKWCIPAWMCSGV (Clonal phage of the Peptide-180 library) [Phage-2101],–,–,–,–,"Anti-PSMA Fab signal in the presence of PSMA [1]: 0.0654; Anti-PSMA Fab (SEQ ID NOs: 19, 20) signal [2]: 1.73"
EIKWCVPQWMCENQ (Clonal phage of the peptide-180 library) [Phage-2117],1.72,0.0643,–,–,–
LENWCKPAWMCRGS [Phage-2109],–,–,1.72,0.0678,–
PLPWCIPVWMCSMI (Clonal phage of the peptide-180 library) [Phage-2129],1.71,0.161,–,–,–
GEIWCIPRWMCESF [Phage-2115],–,–,1.72,0.0672,–
EWKWCTPSWMCEDA [Phage-2105],–,–,1.73,0.0652,–
WENWCTPSWMCSVL [Phage-2116],–,–,1.72,0.118,–
FEMLCTPPWMCVGL [Phage-2133],–,–,–,–,"Phage binding ELISA, Anti-PSMA Fab (SEQ ID NOs: 19, 20) signal [7]: 1.7; Phage binding ELISA, Anti-PSMA Fab signal in the presence of PSMA [8]: 0.0639"
QEKWCIPMWMCESL [Phage-2106],–,–,1.73,0.0796,–
VTAWCIPEWMCVGV (Clonal phage of the peptide-180 library) [Phage-2122],1.71,0.0929,–,–,–
ILKACIPDWMCEGS (Clonal phage of the peptide-180 library) [Phage-2124],1.71,0.0604,–,–,–
SAMLCKPQWMCDGF [Phage-2108],–,–,1.72,0.0821,–
DANWCKPTWMCAGF [Phage-2132],–,–,–,–,"Phage binding ELISA, Anti-PSMA Fab (SEQ ID NOs: 19, 20) signal [7]: 1.7; Phage binding ELISA, Anti-PSMA Fab signal in the presence of PSMA [8]: 0.109"
GVNWCIPDWMCVGM [Phage-2104],–,–,1.73,0.0692,–
VVKWCSPPWMCDFL [Phage-2111],–,–,1.72,0.0713,–
FEKWCIPPWMCAVH [Phage-2110],–,–,1.72,0.138,–
EFKWCTPPWMCQWD (Clonal phage of the peptide-180 library) [Phage-2125],1.71,0.101,–,–,–
